{"source": "patent US20230340058A1", "binders": {"B1": {"name": "SEQ ID NO: 212 (Fc fusion)", "chain": "DKTHTCPPCPAPEAAGGPSVFLFPPKPKDTLMISRTPEVTCVVVDVSHEDPEVKFNWYVDGVEVHNAKTKPREEQYNSTYRVVSVLTVLHQDWLNGKEYKCKVSNKALAAPIEKTISKAKGQPREPQVYTLPPSRDELTKNQVSLTCLVKGFYPSDIAVEWESNGQPENNYKTTPPVLDSDGSFFLYSKLTVDKSRWQQGNVFSCSVLHEALHSHYTQKSLSLSPGKGGSDSWKEEVIKLCGRELVRAQIAICGKSTASDAAGANANAGARQLYSALANKCCHVGCTKRSLAQFC"}, "B2": {"name": "SEQ ID NO: 213 (Fc fusion)", "chain": "B1 chain with Q293E"}, "B3": {"name": "SEQ ID NO: 205 (Fc fusion)", "chain": "DKTHTCPPCPAPEAAGGPSVFLFPPKPKDTLMISRTPEVTCVVVDVSHEDPEVKFNWYVDGVEVHNAKTKPREEQYNSTYRVVSVLTVLHQDWLNGKEYKCKVSNKALAAPIEKTISKAKGQPREPQVYTLPPSRDELTKNQVSLTCLVKGFYPSDIAVEWESNGQPENNYKTTPPVLDSDGSFFLYSKLTVDKSRWQQGNVFSCSVLHEALHSHYTQKSLSLSPGKGGSDSWKEEVIKLCGRELVRAQIAICGKSTGGGEGGGEGGGEGGGQLYSALANKCCHVGCTKRSLARFC"}, "B4": {"name": "SEQ ID NO: 60 (Fc fusion)", "chain": "B3 chain with K234Q"}, "B5": {"name": "SEQ ID NO: 207 (Fc fusion)", "chain": "B3 chain with K234M"}, "B6": {"name": "Relaxin-2 (R&D Biosystems 6586-RN-025) (ligand)", "chain 1": "DSWMEEVIKLCGRELVRAQIAICGMSTWS", "chain 2": "QLYSALANKCCHVGCTKRSLARFC"}, "B7": {"name": "SEQ ID NO: 204 (Fc fusion)", "chain": "DKTHTCPPCPAPEAAGGPSVFLFPPKPKDTLMISRTPEVTCVVVDVSHEDPEVKFNWYVDGVEVHNAKTKPREEQYNSTYRVVSVLTVLHQDWLNGKEYKCKVSNKALAAPIEKTISKAKGQPREPQVYTLPPSRDELTKNQVSLTCLVKGFYPSDIAVEWESNGQPENNYKTTPPVLDSDGSFFLYSKLTVDKSRWQQGNVFSCSVLHEALHSHYTQKSLSLSPGKGGSDSWKEEVIKLCGRELVRAQIAICGKSTGGGEGGGEGGGEGRQLYSALANKCCHVGCTKRSLARFC"}, "B8": {"name": "SEQ ID NO: 57 (Fc fusion)", "chain": "B7 chain with K234Q"}, "B9": {"name": "SEQ ID NO: 66 (Fc fusion)", "chain": "B7 chain with K234Q, R293Q"}, "B10": {"name": "SEQ ID NO: 79 (Fc fusion)", "chain": "B7 chain with K234Q, L273D, R293Q"}, "B11": {"name": "SEQ ID NO: 206 (Fc fusion)", "chain": "B7 chain with K234M"}, "B12": {"name": "SEQ ID NO: 208 (Fc fusion)", "chain": "B7 chain with K234M, G260E, E261G, G264E, R271G"}, "B13": {"name": "SEQ ID NO: 74 (Fc fusion)", "chain": "B7 chain with K234Q, G262E, E265G, G266E, G267E, E269G, R293Q"}, "B14": {"name": "SEQ ID NO: 72 (Fc fusion)", "chain": "B7 chain with K234Q, G262E, E265G, G266E, G267E, E269G"}, "B15": {"name": "SEQ ID NO: 82 (Fc fusion)", "chain": "B7 chain with K234Q, G260E, E261G, G262E, G267E, E269G, G270S, R293Q"}, "B16": {"name": "SEQ ID NO: 209 (Fc fusion)", "chain": "B7 chain with K234Q, G260E, E261G, G264E, R271G"}, "B17": {"name": "SEQ ID NO: 210 (Fc fusion)", "chain": "DKTHTCPPCPAPEAAGGPSVFLFPPKPKDTLMISRTPEVTCVVVDVSHEDPEVKFNWYVDGVEVHNAKTKPREEQYNSTYRVVSVLTVLHQDWLNGKEYKCKVSNKALAAPIEKTISKAKGQPREPQVYTLPPSRDELTKNQVSLTCLVKGFYPSDIAVEWESNGQPENNYKTTPPVLDSDGSFFLYSKLTVDKSRWQQGNVFSCSVLHEALHSHYTQKSLSLSPGGGSDSWMEEVIKLCGRELVRAQIAICGKSTGGEGGGEEGGGEGGQLYSALANKCCHVGCTKRSLARFC"}, "B18": {"name": "SEQ ID NO: 70 (Fc fusion)", "chain": "B17 chain with M233Q, E259G, G260E, E263G, G270R, R292Q"}, "B19": {"name": "SEQ ID NO: 80 (Fc fusion)", "chain": "B17 chain with M233Q, E259G, G260E, E263G, G270R, L272D"}, "B20": {"name": "SEQ ID NO: 211 (Fc fusion)", "chain": "B17 chain with M233Q"}, "B21": {"name": "SEQ ID NO: 68 (Fc fusion)", "chain": "B17 chain with M233Q, E259G, G260E, E263G, G270R"}, "B22": {"name": "SEQ ID NO: 81 (Fc fusion)", "chain": "B17 chain with M233Q, E259G, G260E, E263G, G270R, L272D, R292Q"}, "B23": {"name": "SEQ ID NO: 78 (Fc fusion)", "chain": "DKTHTCPPCPAPEAAGGPSVFLFPPKPKDTLMISRTPEVTCVVVDVSHEDPEVKFNWYVDGVEVHNAKTKPREEQYNSTYRVVSVLTVLHQDWLNGKEYKCKVSNKALAAPIEKTISKAKGQPREPQVYTLPPSRDELTKNQVSLTCLVKGFYPSDIAVEWESNGQPENNYKTTPPVLDSDGSFFLYSKLTVDKSRWQQGNVFSCSVLHEALHSHYTQKSLSLSPGGGSDSWQEEVIKLCGRELVRAQIAICGKSTGGGEEGGGEEGGGRQLYSALANKCCHVGCTKRSLAQFC"}}, "note": "Residue numbers refer to the chain shown, from its start."}
{"biological_target": "human RXFP1, full-length (human), Q9HBX9", "sequence (Q9HBX9 whole entry)": "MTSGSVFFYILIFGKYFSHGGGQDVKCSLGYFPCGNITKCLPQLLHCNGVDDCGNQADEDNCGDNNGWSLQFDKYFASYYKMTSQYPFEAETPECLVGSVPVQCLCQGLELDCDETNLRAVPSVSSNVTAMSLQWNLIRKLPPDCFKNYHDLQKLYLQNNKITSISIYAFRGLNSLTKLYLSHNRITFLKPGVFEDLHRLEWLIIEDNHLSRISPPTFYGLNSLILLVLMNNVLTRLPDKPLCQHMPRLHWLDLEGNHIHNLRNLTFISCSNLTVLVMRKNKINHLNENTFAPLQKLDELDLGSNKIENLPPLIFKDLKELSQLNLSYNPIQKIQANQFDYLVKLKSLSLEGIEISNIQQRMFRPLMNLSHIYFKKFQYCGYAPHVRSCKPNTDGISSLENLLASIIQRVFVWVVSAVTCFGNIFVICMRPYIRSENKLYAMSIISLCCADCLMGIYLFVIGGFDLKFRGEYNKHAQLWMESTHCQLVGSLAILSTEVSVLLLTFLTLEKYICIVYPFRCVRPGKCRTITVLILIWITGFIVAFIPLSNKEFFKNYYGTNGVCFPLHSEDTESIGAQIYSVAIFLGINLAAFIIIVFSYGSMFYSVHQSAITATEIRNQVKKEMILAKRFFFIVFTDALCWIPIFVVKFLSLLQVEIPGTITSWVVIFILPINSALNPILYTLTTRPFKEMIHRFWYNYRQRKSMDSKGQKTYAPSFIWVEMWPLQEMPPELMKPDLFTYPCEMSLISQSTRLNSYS", "experiment": "cell-based or functional assay", "units": {"Potency Assay EC50 (nM), transient hRXFP1 cAMP assay": "nM", "EC50 in nM (cAMP Response in RXFP1 Transfected HEK293 Cells)": "nM"}}
{"binder": "B1", "Potency Assay EC50 (nM), transient hRXFP1 cAMP assay": 0.5}
{"binder": "B2", "Potency Assay EC50 (nM), transient hRXFP1 cAMP assay": 1.8}
{"binder": "B3", "Potency Assay EC50 (nM), transient hRXFP1 cAMP assay": 12.3}
{"binder": "B4", "Potency Assay EC50 (nM), transient hRXFP1 cAMP assay": 15.8}
{"binder": "B5", "Potency Assay EC50 (nM), transient hRXFP1 cAMP assay": 16}
{"binder": "B6", "EC50 in nM (cAMP Response in RXFP1 Transfected HEK293 Cells)": 0.042, "Potency Assay EC50 (nM), transient hRXFP1 cAMP assay": 0.1, "pEC50 (cAMP Response in RXFP1 Transfected HEK293 Cells)": 10.4}
{"binder": "B7", "Potency Assay EC50 (nM), transient hRXFP1 cAMP assay": 2.5}
{"binder": "B8", "Potency Assay EC50 (nM), transient hRXFP1 cAMP assay": 2.5}
{"binder": "B9", "Potency Assay EC50 (nM), transient hRXFP1 cAMP assay": 4.2}
{"binder": "B10", "Potency Assay EC50 (nM), transient hRXFP1 cAMP assay": 117}
{"binder": "B11", "Potency Assay EC50 (nM), transient hRXFP1 cAMP assay": 2.9}
{"binder": "B12", "Potency Assay EC50 (nM), transient hRXFP1 cAMP assay": 60.3}
{"binder": "B13", "Potency Assay EC50 (nM), transient hRXFP1 cAMP assay": 10.2}
{"binder": "B14", "Potency Assay EC50 (nM), transient hRXFP1 cAMP assay": 5.8}
{"binder": "B15", "Potency Assay EC50 (nM), transient hRXFP1 cAMP assay": 18.9}
{"binder": "B16", "Potency Assay EC50 (nM), transient hRXFP1 cAMP assay": 62.8}
{"binder": "B17", "Potency Assay EC50 (nM), transient hRXFP1 cAMP assay": 140}
{"binder": "B18", "Potency Assay EC50 (nM), transient hRXFP1 cAMP assay": 8}
{"binder": "B19", "Potency Assay EC50 (nM), transient hRXFP1 cAMP assay": 162}
{"binder": "B20", "Potency Assay EC50 (nM), transient hRXFP1 cAMP assay": 101}
{"binder": "B21", "Potency Assay EC50 (nM), transient hRXFP1 cAMP assay": 3.3}
{"binder": "B22", "Potency Assay EC50 (nM), transient hRXFP1 cAMP assay": 426}
{"binder": "B23", "Potency Assay EC50 (nM), transient hRXFP1 cAMP assay": 23.4}
